# In the nanobody polyreactivity screen of Harvey et al. (2022):
# Test: yeast display, Sf9 membrane polyspecificity reagent, FACS + sequencing; frameworks hold sequencing errors
# Procedure, shortened: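 Polyreactivity labels are assigned by the sorting gate from which each nanobody was recovered. The gates were low and high (top ~1%), set on anti-HA fluorescence for expression and streptavidin fluorescence for reagent binding. Before sorting, galactose-induced (36–48 hours) yeast display cells were stained for 1 hour at 4 °C with 10% biotinylated, detergent-solubilized Sf9 membrane reagent.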
row,Sequence,polyreactivity (PSR sort gate)
1,QVQLVESGGGLVQAGGSLRLSCAASGRTLTRNAMAWYRQAPRTERELVAVITSSGSRTYYADSVKGRFTISRDNAKNTVYLQMNSLKPEDTAVYYCAAKVDASDVRRSRAGRYDYWGQGTQVTVSS,high polyreactivity
2,QVQLVESGGGLVQAGGSLRLSCAASGRTLTRYTMGWYRQAPGKERELVATISRSGGNTHYADSVKGRFTISRDNAKNTVYLQMNSLKPEDTAVYYCNAVRYAIYGYDYWGQGTQVTVSS,high polyreactivity
3,QVQLVESGGGLVQAGGSLRLSCAASGRTLVDYAMGWYRQAPGKERELVAAINFSGGSTNYADSVKGRFTISRDNAKNTVYLQMNSLKPEDTAVYYCNKEGRPDRDYWGQGTQVTVSS,low polyreactivity
4,QVQLVESGGGLVQAGGSLRLSCAASGRTLVKYAMGWYRQAPGKERELVAAITQRGGITYYADSVKGRFTISRDNAKNTVYLQMNSLKPEDTAVYYFAASLYSYRSPYTFYYWGQGTQVTVSS,high polyreactivity
5,QVQLVESGGGLVQAGGSLRLSCAASGRTLVRYAMGWYRQAPGKEREFVAGISYSGGSTYYADSVKGRFTISRDNAKNTVYLQMNSLKPEDTAVYYCAATTRGARKSGGNYWGQGTQVTVSS,high polyreactivity
6,QVQLVESGGGLVQAGGSLRLSCAASGRTLWLYAMGWYRQAPGKERELVAAITRSAGTTYYADSVKGRFTISRDNAKNTVYLQMNSLKPEDTAVYYCATRYPQSSLSTSSRSSSGYWGQGTQVTVSS,high polyreactivity
7,QVQLVESGGGLVQAGGSLRLSCAASGRTLWRYAMGWYRQAPGKERELVASIRSGGSTYYADSVKGRFTISRDNAKNTVYLQMNSLKPEDTAVYYCAARYYWGAEAGYYYWGQGTQVTVSS,high polyreactivity
8,QVQLVESGGGLVQAGGSLRLSCAASGRTLYFNAMGWYRQAAGKERELVASITNGGRTNYADSVKGRFTISRDNAKNTVYLQMNSLKPEDTAVYYCAKRTLCSRGVNYYWGQGTQVTVSS,high polyreactivity
9,QVQLVESGGGLVQAGGSLRLSCAASGRTLYGNAMGWYRQAPGKEREFVAAITRSGGTTYYADSVKGRFTISRDNAKNTVYLQMNSLKPEDTAVYYCATAFRGYTGLFYWGQGTQVTVSS,high polyreactivity
10,QVQLVESGGGLVQAGGSLRLSCAASGRTLYGYAMGWYRQAPGKERELVAAISESDGSTYADSVKGRFTISRDNAKNTVYLQMNSLKPEDTAVYYCAADYYWYALQDGYYTYGYTYDYWGQGSQVTVSS,low polyreactivity
11,QVQLVESGGGLVQAGGSLRLSCAASGRTLYGYAMGWYRQAPGKERELVAAISESDGSTYADSVKGRFTISRDNAKNTVYLQMNSLKPEDTAVYYCAADYYWYALQDGYYTYGYTYDYWGQGTQVTVSS,low polyreactivity
12,QVQLVESGGGLVQAGGSLRLSCAASGRTLYIYAMGWYRQAPGKERELVAAIRRIGGRTYYADSVKGRFTISRDNAKNTVYLQMNSLKPEDTAVYYCNARSYRLRFSEMDYWGQGTQVTVSS,high polyreactivity
13,QVQLVESGGGLVQAGGSLRLSCAASGRTLYKNTMGWYRPAPGKERELVAAINYSGGSTYYADSVKGRFTISRDNAKNTVYLQMNSLKPEDTAVYYCAADYYDSTGEYDYWGQGTQVTVSS,high polyreactivity
14,QVQLVESGGGLVQAGGSLRLSCAASGRTLYKYAMGWYRQAPGKERELVAAISRNGGSTYYADSVKGRFTISRDNAKNTVYLQMNSLKPEDTAVYYCNALSRYRIWSYGYWGQGTQVTVSS,high polyreactivity
15,QVQLVESGGGLVQAGGSLRLSCAASGRTLYRNAMGWYRQAPGKERELVAAISRSGGITYYADSVKGRFTISRDNAKNTVYLQMNSLKPEDTAVYYCAARYGRGVAPYGYWGQGTQVTVSS,high polyreactivity
16,QVQLVESGGGLVQAGGSLRLSCAASGRTLYRNAMGWYRQAPGKERELVARITWSGASTYYADSVKGRFTISRDNAKNTVYLQMNSLKPDDTAVYYCNTGYWYVSLGSYDYYGEYDYWGQGTQVTVSS,high polyreactivity
17,QVQLVESGGGLVQAGGSLRLSCAASGRTLYRYAMGWYRQAPGKERELVAAISSGGRTYYADSVKGRFTISRDNAKNTVYLQMNSLKPEDTAVYYCAAERGWWRNDFDYWGQGTQVTVSS,high polyreactivity
18,QVQLVESGGGLVQAGGSLRLSCAASGRTLYVYAMGWYRQAPGKEREFVAAINSSGDSTYYADSVKGRFTISRDNAKNTVYLQMNSLKPEDTAVYYCAAAGYYGYGYDYWGQGTQVTVSS,low polyreactivity
19,QVQLVESGGGLVQAGGSLRLSCAASGRTLYYYTMGWYRQAPGKERELVAAIRWSTGSTYYADSVKGRFTISRDNAKNTVYLQMNSLKPEDTAVYYCNAVVARLIFWQFDYWGQGTQVTVSS,high polyreactivity
20,QVQLVESGGGLVQAGGSLRLSCAASGRTNRFYAMGWYRPAPGNERELVAAIRNGGRTNYADSVKGRFTIARDNAKNTVYLQMNSLKPEDTAVYSCAKQPGISYRHYDYWGQGPQVTVSS,high polyreactivity

row,Sequence,polyreactivity (PSR sort gate)
1,QVQLVESGGGLVQAGGSLRLSCAASGRTQSANAMGWYREAPGKERELVATISTRGGRTYYADSVKGRFTISRDNAKNTVYLQMNSLKPEDTAVYYCAVTIRAKYTMKEDYWGQGTQVTVSS,low polyreactivity
2,QVQLVESGGGLVQAGGSLRLSCAASGRTQWRYAMGWYRQAPGKERELVASIRSGGSTYYADSVKGRFTISRDNAKNTVYLQMNSLKPEDTAVYYCAARYYWGAEAGYYYWGQGTQVTVSS,high polyreactivity
3,QVQLVESGGGLVQAGGSLRLSCAASGRTRYPYTMGWYRQAPGKERELVAAITSSGGRTTYADSVKGRFTISRDNAKNTVFLQMYSLKPEDRAVYYCAKKFRPGYRSQYLRYSWGQGSQVTVSS,low polyreactivity
4,QVQLVESGGGLVQAGGSLRLSCAASGRTSAINAMGWYRQAPGKERELVADITRTGGTYADSVKGRFTISRDNAKNNVYLQMNSLKPEVTAVYYCAAVGAWRFDYWGQGTQVTVSS,high polyreactivity
5,QVQLVESGGGLVQAGGSLRLSCAASGRTSDGYAMGWYRQAPGKERELVAGITEGGGDTYYADSVKGRFTISRDNAKNTVYLQMNSLKPEDTAVYYCNAVEGSRLPYDYWGQGTQVTVSS,low polyreactivity
6,QVQLVESGGGLVQAGGSLRLSCAASGRTSDSYAMGWYRQAPGKERELVAVISRSGRTYYADSVKGRFTISRDNAKNTVYLQMNSLKPEDTAVYYCAAKWFRTWSGYWGQGTQVTVSS,high polyreactivity
7,QVQLVESGGGLVQAGGSLRLSCAASGRTSFQYAMGWYRQAPGKERELVAAISWSGGSTFYADSVKGRFTISRDNAKNTVYLQMNSLKPEDTAVYYCNAVSTDSWAYHGDYWGQGTQVTVSS,low polyreactivity
8,QVQLVESGGGLVQAGGSLRLSCAASGRTSGFNTMGWYRQAPGKERELVAAISFSGGSTYYADSVKGRFTISRDNAKNTVYFQMNSLKPEDTAVSYCNALFRYLYRSGDYWRQGTQVTVSS,low polyreactivity
9,QVQLVESGGGLVQAGGSLRLSCAASGRTSGYYAMGWYRQAPGKERELVATISGNVGRTYYADSVKGRFTISRDNAKNTVYLQMNSLKPEDTAVYYCAARTYGPYDYWGQGTQVTVSS,low polyreactivity
10,QVQLVESGGGLVQAGGSLRLSCAASGRTSLAYSMGWYRQAPGKERELVAAINTRGGSTYYADSVKGRFTISRDNAKNTVYLQINSLKPEDTAVYYCAKGPRLYFTPDKAHWKYDSWGQGTQVTVSS,low polyreactivity
11,QVQLVESGGGLVQAGGSLRLSCAASGRTSLGYDMGWYRPAPGQEGELVAAITRSGGSTYYADSVKGRFTISRDNAKNTVYLQMNSLKPEDTAVYYCNRVLPHPDGYGVGARGYWGKGTQVTVSS,high polyreactivity
12,QVQLVESGGGLVQAGGSLRLSCAASGRTSLNYAMGWYRQAPGKERELVAAITLRGGNTYYADSVKGRFTISRDNAKNTVYLQMNSLKPEDTAVYYCAAYTKEISIYYPYEYWGQGTQVTVSS,high polyreactivity
13,QVQLVESGGGLVQAGGSLRLSCAASGRTSLRYAMGWYRQAPGKERELVAAIRYGGGSTRYADSVKGRFTISRDNAKNTVYLQMNSLKPEDTAVYYCAARYFPRIQYGRKGYDYWGQGTQVTVSS,low polyreactivity
14,QVQLVESGGGLVQAGGSLRLSCAASGRTSLYYAMGWYRQAPGKEREFVATITSGGSTNYADSVKGRFTISRDNAKNTVYLQMNSLKPEDTALYYCNARWRRGKTRYGYWGQGTQVNVSS,high polyreactivity
15,QVQLVESGGGLVQAGGSLRLSCAASGRTSRSYTMGWYRQAPGKERELVAAITRGGRTYYADSVKGRFTISRDNAMNTVYLQMNSLKPEDTAVYYCATDRVQSYGYWGQGTQVTVSS,low polyreactivity
16,QVQLVESGGGLVQAGGSLRLSCAASGRTSRYYAMGWYRQAPGKERELVAGISWSGGNTYYADSVKGRFTISRDNAKNTVYLQMNSLKPEDTAVYYCNARIGWSPSRYGYWGQGTQVTVSS,high polyreactivity
17,QVQLVESGGGLVQAGGSLRLSCAASGRTSSRYVMGWYRQAPGKERELVASLSRSGGSTSYADSVKGRFTISRDNAKNTVYLQMISLKPEDTAVDYCYARTSFQRGGGFWGQGTQVTVSS,high polyreactivity
18,QVQLVESGGGLVQAGGSLRLSCAASGRTSTIYTMGWYRQAPGKESEFVASISAGAGTYYADSVKGRFTISRDNAKNTVYLQMNSLKPEDTAVYYCNASVYWRSTRRHQMDYWGQGTQVTVSS,high polyreactivity
19,QVQLVESGGGLVQAGGSLRLSCAASGRTSVIYAMGWYRPAPGKERELVAGISYRGTSTYYADSVKGRFTISRDNAKNTVYLLMNSLKPEDTAVYYCAAESYYKYFNNYDYWGQGTQVTVAS,high polyreactivity
20,QVQLVESGGGLVQAGGSLRLSCAASGRTSVLYAMGWYRQAPGKEREFVAAITWNSGSTYYADSVKGRFTISRDNAKNTVYFQMNSLNPEDTAGYYCAADGLSYYVIRFDYWGQGTQVTVSS,low polyreactivity
